# Target: T1, human beta-Klotho (human, UniProt Q86Z14 1-1044)
# T1 sequence (looked up): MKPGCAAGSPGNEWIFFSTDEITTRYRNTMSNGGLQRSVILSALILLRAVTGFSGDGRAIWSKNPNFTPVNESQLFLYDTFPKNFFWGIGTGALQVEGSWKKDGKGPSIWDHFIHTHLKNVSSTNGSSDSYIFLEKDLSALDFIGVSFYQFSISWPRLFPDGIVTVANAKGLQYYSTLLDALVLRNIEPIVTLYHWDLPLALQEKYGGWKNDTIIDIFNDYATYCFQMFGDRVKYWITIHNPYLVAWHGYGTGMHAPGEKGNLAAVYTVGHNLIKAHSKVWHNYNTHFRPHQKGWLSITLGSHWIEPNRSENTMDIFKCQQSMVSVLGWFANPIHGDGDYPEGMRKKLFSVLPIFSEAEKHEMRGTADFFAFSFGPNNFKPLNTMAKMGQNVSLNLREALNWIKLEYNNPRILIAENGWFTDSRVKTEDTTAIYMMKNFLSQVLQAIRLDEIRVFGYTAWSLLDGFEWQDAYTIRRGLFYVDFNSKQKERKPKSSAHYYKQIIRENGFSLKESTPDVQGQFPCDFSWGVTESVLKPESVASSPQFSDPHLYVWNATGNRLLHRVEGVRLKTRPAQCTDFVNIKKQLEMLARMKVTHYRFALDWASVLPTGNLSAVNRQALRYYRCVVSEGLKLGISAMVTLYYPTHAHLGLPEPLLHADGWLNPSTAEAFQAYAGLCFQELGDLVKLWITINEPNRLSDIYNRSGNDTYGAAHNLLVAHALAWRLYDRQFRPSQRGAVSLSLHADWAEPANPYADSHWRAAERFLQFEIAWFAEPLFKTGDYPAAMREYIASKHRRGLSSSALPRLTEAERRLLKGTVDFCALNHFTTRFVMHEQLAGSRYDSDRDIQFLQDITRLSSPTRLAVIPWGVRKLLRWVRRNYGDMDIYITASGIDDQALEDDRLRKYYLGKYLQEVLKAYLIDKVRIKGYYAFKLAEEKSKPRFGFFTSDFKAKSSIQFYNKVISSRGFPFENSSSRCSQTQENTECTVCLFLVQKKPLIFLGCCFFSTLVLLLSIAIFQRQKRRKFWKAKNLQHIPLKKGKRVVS
# Assay: cell-based or functional assay
row,Binder,pERK-HEK293-Beta-klotho without HSA [EC50 (nM)] Median Value
1,(des N121) Met-FGF21 (ligand) MHPIPDSSPLLQFGGQVRQRYLYTDDAQQTEAHLEIREDGTVGGAADQSPESLLQLKALKPGVIQILGVKTSRFLCQRPDGALYGSLHFDPEACSFRELLLEDGYNVYQSEAHGLPLHLPGKSPHRDPAPRGPARFLPLPGLPPALPEPPGILAPQPPDVGSSDPLSMVGPSQGRSPSYAS,1 nM
2,"(K56R, K59R, K69R, N121Q, K122R, L166F, S167G, M168L, 169aT, P171L, S172E, Q173A, G174V, Y179F, A180E, S181R) FGF21 (ligand) HPIPDSSPLLQFGGQVRQRYLYTDDAQQTEAHLEIREDGTVGGAADQSPESLLQLRALRPGVIQILGVRTSRFLCQRPDGALYGSLHFDPEACSFRELLLEDGYNVYQSEAHGLPLHLPGQRSPHRDPAPRGPARFLPLPGLPPALPEPPGILAPQPPDVGSSDPFGLVTGLEAVRSPSFER",3 nM
3,"(S71C, N121Q, L166F, S167G, M168L, 169aT, P171L, S172E, Q173A, G174V, Y179F, A180E, S181K) Ala-FGF21 (ligand) AHPIPDSSPLLQFGGQVRQRYLYTDDAQQTEAHLEIREDGTVGGAADQSPESLLQLKALKPGVIQILGVKTCRFLCQRPDGALYGSLHFDPEACSFRELLLEDGYNVYQSEAHGLPLHLPGQKSPHRDPAPRGPARFLPLPGLPPALPEPPGILAPQPPDVGSSDPFGLVTGLEAVRSPSFEK",2 nM
4,"(S71C, L166F, S167G, M168L, 169aT, P171L, S172E, Q173A, G174V, Y179F, A180E, S181K) Ser-FGF21 (ligand) SHPIPDSSPLLQFGGQVRQRYLYTDDAQQTEAHLEIREDGTVGGAADQSPESLLQLKALKPGVIQILGVKTCRFLCQRPDGALYGSLHFDPEACSFRELLLEDGYNVYQSEAHGLPLHLPGNKSPHRDPAPRGPARFLPLPGLPPALPEPPGILAPQPPDVGSSDPFGLVTGLEAVRSPSFEK",2.2 nM
5,"(K56R, 59R, 69R, 122R, 166F, 167G, 168L, 169aT, 171L, 172E, 173A, 174V, 179F, 180E, 181R) Ser-FGF21 derivative of Example 50 (ligand, N-alpha-1-[2-(2-{2-[2-(2-{2-[(S)-4carboxy-4-(17-carboxy-heptadecanoylamino)-butyrylamino]-ethoxy}-ethoxy)-acetylamino]-ethoxy}-ethoxy)-acetyl] on the N-terminal alpha amino group) SHPIPDSSPLLQFGGQVRQRYLYTDDAQQTEAHLEIREDGTVGGAADQSPESLLQLRALRPGVIQILGVRTSRFLCQRPDGALYGSLHFDPEACSFRELLLEDGYNVYQSEAHGLPLHLPGNRSPHRDPAPRGPARFLPLPGLPPALPEPPGILAPQPPDVGSSDPFGLVTGLEAVRSPSFER",2 nM
6,"(-1A, 71C, 121Q, 166F, 167G, 168L, 169aT, 171L, 172E, 173A, 174V, 179F, 180E, 181K) FGF21 derivative of Example 17 (ligand, S-71-({2-[2-(2-{2-[2-(2-{2-[(S)-4-carboxy-4-(17-carboxy-heptadecanoylamino)-butyrylamino]-ethoxy}-ethoxy)-acetylamino]-ethoxy}-ethoxy)-acetylamino]-ethylcarbamoyl}-methyl) on the thiol of Cys71) AHPIPDSSPLLQFGGQVRQRYLYTDDAQQTEAHLEIREDGTVGGAADQSPESLLQLKALKPGVIQILGVKTCRFLCQRPDGALYGSLHFDPEACSFRELLLEDGYNVYQSEAHGLPLHLPGQKSPHRDPAPRGPARFLPLPGLPPALPEPPGILAPQPPDVGSSDPFGLVTGLEAVRSPSFEK",3 nM
7,"(K56R, K59R, K69R, K122R, L166F, S167G, M168L, 169aT, P171L, S172E, Q173A, G174V, Y179F, A180E, S181R) Ser-FGF21 (ligand) SHPIPDSSPLLQFGGQVRQRYLYTDDAQQTEAHLEIREDGTVGGAADQSPESLLQLRALRPGVIQILGVRTSRFLCQRPDGALYGSLHFDPEACSFRELLLEDGYNVYQSEAHGLPLHLPGNRSPHRDPAPRGPARFLPLPGLPPALPEPPGILAPQPPDVGSSDPFGLVTGLEAVRSPSFER",3.8 nM
8,"(-1S, 71C, 166F, 167G, 168L, 169aT, 171L, 172E, 173A, 174V, 179F, 180E, 181K) FGF21 derivative of Example 18 (ligand, S-71-({2-[2-(2-{2-[2-(2-{2-[(S)-4-carboxy-4-(17-carboxy-heptadecanoylamino)-butyrylamino]-ethoxy}-ethoxy)-acetylamino]-ethoxy}-ethoxy)-acetyl-amino]-ethylcarbamoyl}-methyl) on the thiol of Cys71) SHPIPDSSPLLQFGGQVRQRYLYTDDAQQTEAHLEIREDGTVGGAADQSPESLLQLKALKPGVIQILGVKTCRFLCQRPDGALYGSLHFDPEACSFRELLLEDGYNVYQSEAHGLPLHLPGNKSPHRDPAPRGPARFLPLPGLPPALPEPPGILAPQPPDVGSSDPFGLVTGLEAVRSPSFEK",2.5 nM
9,"(L166F, S167G, M168L, 169aT, P171L, S172E, Q173A, G174V, Y179F, A180E, S181K) Ser-FGF21 (ligand) SHPIPDSSPLLQFGGQVRQRYLYTDDAQQTEAHLEIREDGTVGGAADQSPESLLQLKALKPGVIQILGVKTSRFLCQRPDGALYGSLHFDPEACSFRELLLEDGYNVYQSEAHGLPLHLPGNKSPHRDPAPRGPARFLPLPGLPPALPEPPGILAPQPPDVGSSDPFGLVTGLEAVRSPSFEK",1 nM
10,"(K56R, K59R, K69R, D102E, N121Q, K122R, M168L) GSGSG-FGF21 (ligand) GSGSGHPIPDSSPLLQFGGQVRQRYLYTDDAQQTEAHLEIREDGTVGGAADQSPESLLQLRALRPGVIQILGVRTSRFLCQRPDGALYGSLHFDPEACSFRELLLEEGYNVYQSEAHGLPLHLPGQRSPHRDPAPRGPARFLPLPGLPPALPEPPGILAPQPPDVGSSDPLSLVGPSQGRSPSYAS",6.6 nM
11,"(-5G, -4S, -3G, -2S, -1G, K56R, 59R, 69R, 102E, 121Q, 122R, 168L) FGF21 derivative of Example 55 (ligand, N-alpha-1-[4-(16-1H-tetrazol-5-yl-hexadecanoylsulfamoyl)-butyryl] on the N-terminal alpha amino group) GSGSGHPIPDSSPLLQFGGQVRQRYLYTDDAQQTEAHLEIREDGTVGGAADQSPESLLQLRALRPGVIQILGVRTSRFLCQRPDGALYGSLHFDPEACSFRELLLEEGYNVYQSEAHGLPLHLPGQRSPHRDPAPRGPARFLPLPGLPPALPEPPGILAPQPPDVGSSDPLSLVGPSQGRSPSYAS",2 nM
12,"[-5G, -4S, -3G, -2S, -1G, K56R, 59R, 69R, 102E, 121Q, 122R, 168L] FGF21 derivative of Example 52 (ligand, N-alpha-1-[2-(2-{2-[2-(2-{2-[(S)-4-carboxy-4-(17-carboxy-heptadecanoylamino)-butyrylamino]-ethoxy}-ethoxy)-acetylamino]-ethoxy}-ethoxy)-acetyl] on the N-terminal alpha amino group) GSGSGHPIPDSSPLLQFGGQVRQRYLYTDDAQQTEAHLEIREDGTVGGAADQSPESLLQLRALRPGVIQILGVRTSRFLCQRPDGALYGSLHFDPEACSFRELLLEEGYNVYQSEAHGLPLHLPGQRSPHRDPAPRGPARFLPLPGLPPALPEPPGILAPQPPDVGSSDPLSLVGPSQGRSPSYAS",11 nM
13,"(Q28R, A31 E) Met-FGF21 (ligand) MHPIPDSSPLLQFGGQVRQRYLYTDDAQRTEEHLEIREDGTVGGAADQSPESLLQLKALKPGVIQILGVKTSRFLCQRPDGALYGSLHFDPEACSFRELLLEDGYNVYQSEAHGLPLHLPGNKSPHRDPAPRGPARFLPLPGLPPALPEPPGILAPQPPDVGSSDPLSMVGPSQGRSPSYAS",1 nM
14,"S71C Met-FGF21 derivative of Example 14 (ligand, S-71-({2-[2-(2-{2-[2-(2-{2-[(S)-4-carboxy-4-(17-carboxy-heptadecanoylamino)-butyrylamino]-ethoxy}-ethoxy)-acetylamino]-ethoxy}-ethoxy)-acetylamino]-ethylcarbamoyl}-methyl) on the thiol of Cys71) MHPIPDSSPLLQFGGQVRQRYLYTDDAQQTEAHLEIREDGTVGGAADQSPESLLQLKALKPGVIQILGVKTCRFLCQRPDGALYGSLHFDPEACSFRELLLEDGYNVYQSEAHGLPLHLPGNKSPHRDPAPRGPARFLPLPGLPPALPEPPGILAPQPPDVGSSDPLSMVGPSQGRSPSYAS",2.9 nM
15,"S71C Met-FGF21 derivative of Example 13 (ligand, S-71-[1-(2-{2-[2-(2-{2-[2-(2-{2-[(S)-4-carboxy-4-(17-carboxy-heptadecanoylamino)-butyrylamino]-ethoxy}-ethoxy)-acetylamino]-ethoxy}-ethoxy)-acetylamino]-ethylcarbamoyl}-ethyl)-2,5-dioxo-pyrrolidin-3-yl] on the thiol of Cys71) MHPIPDSSPLLQFGGQVRQRYLYTDDAQQTEAHLEIREDGTVGGAADQSPESLLQLKALKPGVIQILGVKTCRFLCQRPDGALYGSLHFDPEACSFRELLLEDGYNVYQSEAHGLPLHLPGNKSPHRDPAPRGPARFLPLPGLPPALPEPPGILAPQPPDVGSSDPLSMVGPSQGRSPSYAS",4.8 nM
16,(M168S) Ser-FGF21 (ligand) SHPIPDSSPLLQFGGQVRQRYLYTDDAQQTEAHLEIREDGTVGGAADQSPESLLQLKALKPGVIQILGVKTSRFLCQRPDGALYGSLHFDPEACSFRELLLEDGYNVYQSEAHGLPLHLPGNKSPHRDPAPRGPARFLPLPGLPPALPEPPGILAPQPPDVGSSDPLSSVGPSQGRSPSYAS,100 nM
17,"S71C Met-FGF21 derivative of Example 5 (ligand, S-71-[1-(2-{2-[2-(2-{2-[2-(2-{2-[(S)-4-carboxy-4-(19-carboxy-nonadecanoylamino)-butyrylamino]-ethoxy}-ethoxy)-acetylamino]-ethoxy}-ethoxy)-acetylamino]-ethylcarbamoyl}-ethyl)-2,5-dioxo-pyrrolidin-3-yl] on the thiol of Cys71) MHPIPDSSPLLQFGGQVRQRYLYTDDAQQTEAHLEIREDGTVGGAADQSPESLLQLKALKPGVIQILGVKTCRFLCQRPDGALYGSLHFDPEACSFRELLLEDGYNVYQSEAHGLPLHLPGNKSPHRDPAPRGPARFLPLPGLPPALPEPPGILAPQPPDVGSSDPLSMVGPSQGRSPSYAS",1.1 nM
18,S71C Met-FGF21 (ligand) MHPIPDSSPLLQFGGQVRQRYLYTDDAQQTEAHLEIREDGTVGGAADQSPESLLQLKALKPGVIQILGVKTCRFLCQRPDGALYGSLHFDPEACSFRELLLEDGYNVYQSEAHGLPLHLPGNKSPHRDPAPRGPARFLPLPGLPPALPEPPGILAPQPPDVGSSDPLSMVGPSQGRSPSYAS,3 nM
19,"S71C Met-FGF21 derivative of Examples 6 and 12 (ligand, S-71-({2-[2-(2-{2-[2-(2-{2-[(S)-4-carboxy-4-(19-carboxy-nonadecanoylamino)-butyrylamino]-ethoxy}-ethoxy)-acetylamino]-ethoxy}-ethoxy)-acetylamino]-ethylcarbamoyl}-methyl) on the thiol of Cys71) MHPIPDSSPLLQFGGQVRQRYLYTDDAQQTEAHLEIREDGTVGGAADQSPESLLQLKALKPGVIQILGVKTCRFLCQRPDGALYGSLHFDPEACSFRELLLEDGYNVYQSEAHGLPLHLPGNKSPHRDPAPRGPARFLPLPGLPPALPEPPGILAPQPPDVGSSDPLSMVGPSQGRSPSYAS",1.5 nM
20,"(K56R, K59R, K69R, K122R) Met-FGF21 derivative of Example 7 (ligand, N-alpha-1-[2-(2-{2-[2-(2-{2-[(S)-4-carboxy-4-(17-carboxy-heptadecanoylamino)-butyrylamino]-ethoxy}-ethoxy)-acetylamino]-ethoxy}-ethoxy)-acetyl] on the alpha amino group of the N-terminal Met) MHPIPDSSPLLQFGGQVRQRYLYTDDAQQTEAHLEIREDGTVGGAADQSPESLLQLRALRPGVIQILGVRTSRFLCQRPDGALYGSLHFDPEACSFRELLLEDGYNVYQSEAHGLPLHLPGNRSPHRDPAPRGPARFLPLPGLPPALPEPPGILAPQPPDVGSSDPLSMVGPSQGRSPSYAS",1.4 nM

# — US20100216715A1 (Novo Nordisk, published 2010)
